In patent US20120114667A1:
Blank lines part the entries; values can stand above or below the substance they belong to.

Key:
[1] = target: β1 integrin chain on HT29 cells (α5 null line) (human) (UniProt P05556); test: FACS on HT29 cells, positive control
[2] = target: macaque β1 integrin chain on T cells (Macaque); test: FACS on macaque PBMC, control antibody
[3] = target: β1 integrin chain on HT29 cells (α5 null line) (human) (UniProt P05556); test: FACS on HT29 cells, isotype control
[4] = target: human α5β1 integrin (human) (UniProt P08648); test: FACS on human α5β1-transfected 300.19 cells, negative control
Chain of human α5β1 integrin (human) (P08648 42-1049, chain 1 of 2): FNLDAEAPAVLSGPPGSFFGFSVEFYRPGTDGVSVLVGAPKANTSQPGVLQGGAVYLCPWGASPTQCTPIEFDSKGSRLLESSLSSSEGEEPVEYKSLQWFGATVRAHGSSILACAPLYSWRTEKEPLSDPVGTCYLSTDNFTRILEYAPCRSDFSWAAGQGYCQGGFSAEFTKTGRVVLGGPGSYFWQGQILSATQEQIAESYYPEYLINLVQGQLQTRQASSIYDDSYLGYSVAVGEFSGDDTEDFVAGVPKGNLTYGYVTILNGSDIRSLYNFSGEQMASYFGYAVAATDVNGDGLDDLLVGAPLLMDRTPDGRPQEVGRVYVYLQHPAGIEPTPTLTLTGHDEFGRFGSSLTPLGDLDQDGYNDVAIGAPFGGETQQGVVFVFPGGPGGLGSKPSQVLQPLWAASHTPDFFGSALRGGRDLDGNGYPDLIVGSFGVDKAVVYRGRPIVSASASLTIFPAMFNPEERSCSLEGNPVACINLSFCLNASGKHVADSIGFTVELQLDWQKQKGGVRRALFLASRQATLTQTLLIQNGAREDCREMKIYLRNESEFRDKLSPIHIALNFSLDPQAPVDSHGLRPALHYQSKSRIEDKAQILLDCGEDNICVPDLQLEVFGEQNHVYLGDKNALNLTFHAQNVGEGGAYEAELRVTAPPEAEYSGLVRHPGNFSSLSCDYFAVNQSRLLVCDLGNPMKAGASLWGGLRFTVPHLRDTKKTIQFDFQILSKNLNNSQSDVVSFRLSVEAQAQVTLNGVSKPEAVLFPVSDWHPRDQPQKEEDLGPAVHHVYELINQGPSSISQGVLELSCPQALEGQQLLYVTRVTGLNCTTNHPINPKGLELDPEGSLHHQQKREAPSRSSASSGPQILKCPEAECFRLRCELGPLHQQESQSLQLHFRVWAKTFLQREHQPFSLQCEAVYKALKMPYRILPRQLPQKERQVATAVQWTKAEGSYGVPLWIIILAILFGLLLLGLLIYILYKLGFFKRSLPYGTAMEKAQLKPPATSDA
Chain of human α5β1 integrin (human) (P05556 21-798, chain 2 of 2, further chain): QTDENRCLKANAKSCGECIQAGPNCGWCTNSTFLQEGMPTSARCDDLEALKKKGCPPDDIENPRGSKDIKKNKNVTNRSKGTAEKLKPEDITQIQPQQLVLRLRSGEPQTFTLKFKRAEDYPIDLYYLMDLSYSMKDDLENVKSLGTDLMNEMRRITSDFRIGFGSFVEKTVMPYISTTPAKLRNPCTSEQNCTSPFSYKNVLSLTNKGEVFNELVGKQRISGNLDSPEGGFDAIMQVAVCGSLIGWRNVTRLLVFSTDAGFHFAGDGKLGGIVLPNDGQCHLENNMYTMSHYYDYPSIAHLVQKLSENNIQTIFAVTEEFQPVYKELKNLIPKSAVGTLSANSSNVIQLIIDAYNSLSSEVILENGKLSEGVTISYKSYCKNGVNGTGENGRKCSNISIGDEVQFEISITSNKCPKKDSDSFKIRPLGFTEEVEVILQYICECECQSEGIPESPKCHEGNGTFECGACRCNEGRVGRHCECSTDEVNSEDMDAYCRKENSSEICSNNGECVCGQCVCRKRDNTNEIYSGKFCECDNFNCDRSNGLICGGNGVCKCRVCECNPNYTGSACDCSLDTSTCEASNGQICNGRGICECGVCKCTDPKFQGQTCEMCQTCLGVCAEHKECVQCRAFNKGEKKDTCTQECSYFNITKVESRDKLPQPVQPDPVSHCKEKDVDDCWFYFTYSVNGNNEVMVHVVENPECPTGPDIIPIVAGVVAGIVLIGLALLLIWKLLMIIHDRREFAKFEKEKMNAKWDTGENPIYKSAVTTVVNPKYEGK

[5] = target: human α5β1 integrin (human) (UniProt P08648); test: FACS on human α5β1-transfected against untransfected 300.19 cells, negative control
Macaque α5β1 (Macaque) = test: FACS on macaque PBMC, isotype control
[6] = target: avb3 and avb5 integrins on A375M cells; test: cell-based or functional assay
[7] = target: αv integrin chain on HT29 cells (human) (UniProt P06756); test: FACS on HT29 cells, positive control
Chain of αv integrin chain on HT29 cells (human) (P06756 31-1048): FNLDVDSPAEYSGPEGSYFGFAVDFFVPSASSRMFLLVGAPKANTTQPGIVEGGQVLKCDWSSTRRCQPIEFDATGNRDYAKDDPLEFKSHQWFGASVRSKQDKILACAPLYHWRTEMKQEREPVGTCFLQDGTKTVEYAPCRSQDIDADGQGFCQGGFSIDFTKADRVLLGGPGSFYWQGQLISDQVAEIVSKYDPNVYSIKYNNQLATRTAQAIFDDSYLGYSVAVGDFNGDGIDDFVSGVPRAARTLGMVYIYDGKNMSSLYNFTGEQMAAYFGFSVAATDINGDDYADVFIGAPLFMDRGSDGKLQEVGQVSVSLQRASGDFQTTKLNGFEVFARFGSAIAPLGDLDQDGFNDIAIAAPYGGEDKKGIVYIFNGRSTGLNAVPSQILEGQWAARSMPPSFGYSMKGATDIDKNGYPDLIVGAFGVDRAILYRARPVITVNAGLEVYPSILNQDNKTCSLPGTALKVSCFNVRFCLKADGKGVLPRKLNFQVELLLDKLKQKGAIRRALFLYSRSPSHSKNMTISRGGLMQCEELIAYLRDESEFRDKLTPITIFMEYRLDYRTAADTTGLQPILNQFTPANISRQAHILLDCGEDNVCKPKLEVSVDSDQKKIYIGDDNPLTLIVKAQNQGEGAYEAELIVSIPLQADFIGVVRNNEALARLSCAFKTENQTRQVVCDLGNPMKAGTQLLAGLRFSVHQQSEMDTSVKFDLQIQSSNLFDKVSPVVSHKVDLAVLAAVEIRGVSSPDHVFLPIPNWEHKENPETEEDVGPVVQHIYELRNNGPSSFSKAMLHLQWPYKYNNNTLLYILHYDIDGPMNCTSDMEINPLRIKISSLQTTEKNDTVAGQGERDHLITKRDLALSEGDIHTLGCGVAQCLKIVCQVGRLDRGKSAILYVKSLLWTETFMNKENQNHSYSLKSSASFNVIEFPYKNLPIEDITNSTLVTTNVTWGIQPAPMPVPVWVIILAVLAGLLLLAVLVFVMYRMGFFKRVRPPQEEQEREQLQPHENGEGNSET

[8] = target: macaque αV integrin chain on T cells (Macaque); test: FACS on macaque PBMC, control antibody
[9] = target: αvβ6 integrin on HT29 cells (human) (UniProt P06756); test: FACS on HT29 cells, positive control
Chain of αvβ6 integrin on HT29 cells (human) (P06756 31-1048, chain 1 of 2): as the sequence (P06756 31-1048) above
Chain of αvβ6 integrin on HT29 cells (human) (P18564 22-788, chain 2 of 2, further chain): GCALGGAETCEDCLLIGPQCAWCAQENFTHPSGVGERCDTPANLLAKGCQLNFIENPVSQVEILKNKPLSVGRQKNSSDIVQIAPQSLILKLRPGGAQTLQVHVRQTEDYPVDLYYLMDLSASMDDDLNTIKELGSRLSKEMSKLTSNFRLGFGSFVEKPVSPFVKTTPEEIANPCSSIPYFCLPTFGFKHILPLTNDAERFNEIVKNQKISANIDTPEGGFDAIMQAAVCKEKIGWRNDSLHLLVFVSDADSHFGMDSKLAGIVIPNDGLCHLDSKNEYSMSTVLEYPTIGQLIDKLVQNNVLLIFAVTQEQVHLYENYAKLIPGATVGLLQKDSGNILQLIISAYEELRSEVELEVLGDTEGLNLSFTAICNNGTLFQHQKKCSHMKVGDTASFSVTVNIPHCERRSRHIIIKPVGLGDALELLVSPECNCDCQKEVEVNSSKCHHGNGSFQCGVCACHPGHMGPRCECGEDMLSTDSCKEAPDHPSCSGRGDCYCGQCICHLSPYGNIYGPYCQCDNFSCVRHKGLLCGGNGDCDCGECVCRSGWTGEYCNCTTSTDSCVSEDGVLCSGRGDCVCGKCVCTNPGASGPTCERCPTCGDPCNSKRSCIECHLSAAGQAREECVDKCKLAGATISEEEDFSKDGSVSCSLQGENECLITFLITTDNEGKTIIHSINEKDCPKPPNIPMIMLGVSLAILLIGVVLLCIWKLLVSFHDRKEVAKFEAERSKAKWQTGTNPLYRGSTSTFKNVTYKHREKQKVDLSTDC

[10] = target: β1 integrin chain on HT29 cells (α5 null line) (human) (UniProt P05556); test: FACS on HT29 cells (no α5, β1 present), control antibody to α5β1

Chain of β1 integrin chain on HT29 cells (α5 null line) (human) (P05556 21-798): as the sequence (P05556 21-798, chain 2 of 2, further chain) above

Substance: Human IgG2 (antibody)
Binding Geomean [3]: 2.84 | X Geo Mean [4]: 12 | Ratio (α5β1 expressing cells / parental cells) [5]: 0.8

Substance: MAB2077Z avb6 (antibody)
Binding Geomean [9]: 39.2

Substance: Mouse IgG1 (antibody)
Binding Geomean [3]: 2.55 | Geo Mean on Macaque T-cells IgG detection (Macaque α5β1 (Macaque)): 2 | X Geo Mean [4]: 14.9 | Ratio (α5β1 expressing cells / parental cells) [5]: 0.9

Substance: Mouse IgG2a (antibody)
Binding Geomean [3]: 10.2

Substance: mAb 1969 (antibody)
Binding Geomean [10]: 2.69

Continued, values first:

Binding Geomean [1]: 362 | Geo Mean on Macaque T-cells IgG detection [2]: 141
Substance: 4b4 anti beta1 (antibody)

Geo Mean on Macaque T-cells IgG detection (Macaque α5β1 (Macaque)): 3
Substance: Human IgG2/4

Binding Geomean [3]: 3.2
Substance: Human IgG4 (antibody)

Osteopontin Adhesion (% inhibition) at 5 ug/ml, A375M cells [6]: 97% | Vitronectin Adhesion (% inhibition) at 5 ug/ml, A375M cells [6]: 96% | Binding Geomean [7]: 294 | Geo Mean on Macaque T-cells IgG detection [8]: 3
Substance: L230 (antibody)
